B1: X-linked retinitis pigmentosa GTPase regulator (Homo sapiens), Q92834 (parent)
chain: MREPEELMPDSGAVFTFGKSKFAENNPGKFWFKNDVPVHLSCGDEHSAVVTGNNKLYMFGSNNWGQLGLGSKSAISKPTCVKALKPEKVKLAACGRNHTLVSTEGGNVYATGGNNEGQLGLGDTEERNTFHVISFFTSEHKIKQLSAGSNTSAALTEDGRLFMWGDNSEGQIGLKNVSNVCVPQQVTIGKPVSWISCGYYHSAFVTTDGELYVFGEPENGKLGLPNQLLGNHRTPQLVSEIPEKVIQVACGGEHTVVLTENAVYTFGLGQFGQLGLGTFLFETSEPKVIENIRDQTISYISCGENHTALITDIGLMYTFGDGRHGKLGLGLENFTNHFIPTLCSNFLRFIVKLVACGGCHMVVFAAPHRGVAKEIEFDEINDTCLSVATFLPYSSLTSGNVLQRTLSARMRRRERERSPDSFSMRRTLPPIEGTLGLSACFLPNSVFPRCSERNLQESVLSEQDLMQPEEPDYLLDEMTKEAEIDNSSTVESLGETTDILNMTHIMSLNSNEKSLKLSPVQKQKKQQTIGELTQDTALTENDDSDEYEEMSEMKEGKACKQHVSQGIFMTQPATTIEAFSDEEVGNDTGQVGPQADTDGEGLQKEVYRHENNNGVDQLDAKEIEKESDGGHSQKESEAEEIDSEKETKLAEIAGMKDLREREKSTKKMSPFFGNLPDRGMNTESEENKDFVKKRESCKQDVIFDSERESVEKPDSYMEGASESQQGIADGFQQPEAIEFSSGEKEDDEVETDQNIRYGRKLIEQGNEKETKPIISKSMAKYDFKCDRLSEIPEEKEGAEDSKGNGIEEQEVEANEENVKVHGGRKEKTEILSDDLTDKAEDHEFSKTEELKLEDVDEEINAENVESKKKTVGDDESVPTGYHSKTEGAERTNDDSSAETIEKKEKANLEERAICEYNENPKGYMLDDADSSSLEILENSETTPSKDMKKTKKIFLFKRVPSINQKIVKNNNEPLPEIKSIGDQIILKSDNKDADQNHMSQNHQNIPPTNTERRSKSCTIL
partner: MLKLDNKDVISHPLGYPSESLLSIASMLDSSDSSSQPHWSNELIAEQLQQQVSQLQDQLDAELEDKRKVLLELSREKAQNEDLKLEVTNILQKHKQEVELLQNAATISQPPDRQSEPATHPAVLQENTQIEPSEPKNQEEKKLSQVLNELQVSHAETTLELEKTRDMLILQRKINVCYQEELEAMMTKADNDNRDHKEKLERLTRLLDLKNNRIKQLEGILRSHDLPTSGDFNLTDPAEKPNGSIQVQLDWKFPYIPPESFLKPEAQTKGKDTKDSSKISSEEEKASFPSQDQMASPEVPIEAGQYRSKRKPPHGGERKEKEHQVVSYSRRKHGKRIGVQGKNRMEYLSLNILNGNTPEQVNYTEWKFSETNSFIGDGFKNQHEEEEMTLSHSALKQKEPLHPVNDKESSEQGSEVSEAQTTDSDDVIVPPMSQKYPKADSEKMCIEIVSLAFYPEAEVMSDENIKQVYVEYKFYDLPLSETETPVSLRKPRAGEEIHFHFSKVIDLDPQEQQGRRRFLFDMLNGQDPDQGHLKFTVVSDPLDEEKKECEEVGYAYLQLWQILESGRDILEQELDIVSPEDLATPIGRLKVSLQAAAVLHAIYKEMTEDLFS
B2: Plakophilin-2 (Homo sapiens), Q99959-2 (parent)
chain: MAAPGAPAEYGYIRTVLGQQILGQLDSSSLALPSEAKLKLAGSSGRGGQTVKSLRIQEQVQQTLARKGRSSVGNGNLHRTSSVPEYVYNLHLVENDFVGGRSPVPKTYDMLKAGTTATYEGRWGRGTAQYSSQKSVEERSLRHPLRRLEISPDSSPERAHYTHSDYQYSQRSQAGHTLHHQESRRAALLVPPRYARSEIVGVSRAGTTSRQRHFDTYHRQYQHGSVSDTVFDSIPANPALLTYPRPGTSRSMGNLLEKENYLTAGLTVGQVRPLVPLQPVTQNRASRSSWHQSSFHSTRTLREAGPSVAVDSSGRRAHLTVGQAAAGGSGNLLTERSTFTDSQLGNADMEMTLERAVSMLEADHMLPSRISAAATFIQHECFQKSEARKRVNQLRGILKLLQLLKVQNEDVQRAVCGALRNLVFEDNDNKLEVAELNGVPRLLQVLKQTRDLETKKQITGLLWNLSSNDKLKNLMITEALLTLTENIIIPFSGWPEGDYPKANGLLDFDIFYNVTGCLRNMSSAGADGRKAMRRCDGLIDSLVHYVRGTIADYQPDDKATENCVCILHNLSYQLEAELPEKYSQNIYIQNRNIQTDNNKSIGCFGSRSRKVKEQYQDVPMPEEKSNPKGVEWLWHSIVIRMYLSLIAKSVRNYTQEASLGALQNLTAGSGPMPTSVAQTVVQKESGLQHTRKMLHVGDPSVKKTAISLLRNLSRNLSLQNEIAKETLPDLVSIIPDTVPSTDLLIETTASACYTLNNIIQNSYQNARDLLNTGGIQKIMAISAGDAYASNKASKAASVLLYSLWAHTELHHAYKKAQFKKTDFVNSRTAKAYHSLKD
B3: Regulator of G-protein signaling 2 (Homo sapiens), P41220 (parent)
chain: MQSAMFLAVQHDCRPMDKSAGSGHKSEEKREKMKRTLLKDWKTRLSYFLQNSSTPGKPKTGKKSKQQAFIKPSPEEAQLWSEAFDELLASKYGLAAFRAFLKSEFCEENIEFWLACEDFKKTKSPQKLSSKARKIYTDFIEKEAPKEINIDFQTKTLIAQNIQEATSGCFTTAQKRVYSLMENNSYPRFLESEFYQDLCKKPQITTEPHAT
B4: Neutrophil cytosol factor 1 (Homo sapiens), P14598 (parent)
chain: MGDTFIRHIALLGFEKRFVPSQHYVYMFLVKWQDLSEKVVYRRFTEIYEFHKTLKEMFPIEAGAINPENRIIPHLPAPKWFDGQRAAENRQGTLTEYCSTLMSLPTKISRCPHLLDFFKVRPDDLKLPTDNQTKKPETYLMPKDGKSTATDITGPIILQTYRAIANYEKTSGSEMALSTGDVVEVVEKSESGWWFCQMKAKRGWIPASFLEPLDSPDETEDPEPNYAGEPYVAIKAYTAVEGDEVSLLEGEAVEVIHKLLDGWWVIRKDDVTGYFPSMYLQKSGQDVSQAQRQIKRGAPPRRSSIRNAHSIHQRSRKRLSQDAYRRNSVRFLQQRRRQARPGPQSPGSPLEEERQTQRSKPQPAVPPRPSADLILNRCSESTKRKLASAV
B5: Galactose-1-phosphate uridylyltransferase (Homo sapiens), P07902 (parent)
chain: MSRSGTDPQQRQQASEADAAAATFRANDHQHIRYNPLQDEWVLVSAHRMKRPWQGQVEPQLLKTVPRHDPLNPLCPGAIRANGEVNPQYDSTFLFDNDFPALQPDAPSPGPSDHPLFQAKSARGVCKVMCFHPWSDVTLPLMSVPEIRAVVDAWASVTEELGAQYPWVQIFENKGAMMGCSNPHPHCQVWASSFLPDIAQREERSQQAYKSQHGEPLLMEYSRQELLRKERLVLTSEHWLVLVPFWATWPYQTLLLPRRHVRRLPELTPAERDDLASIMKKLLTKYDNLFETSFPYSMGWHGAPTGSEAGANWNHWQLHAHYYPPLLRSATVRKFMVGYEMLAQAQRDLTPEQAAERLRALPEVHYHLGQKDRETATIA

Variants of: B1
Conditions: with RPGRIP1, Q96KN7-4

effect of a mutation on the interaction	Variant
with no effect	Q184H
with no effect	G436D
with no effect	R425K
disrupting interaction strength	H98Q
disrupting interaction strength	T255I

Variants of: B2
Conditions: with MTUS2, Q5JR59-3
Target sequence in this assay (Q5JR59 other isoform, or with tags, fused parts or gaps): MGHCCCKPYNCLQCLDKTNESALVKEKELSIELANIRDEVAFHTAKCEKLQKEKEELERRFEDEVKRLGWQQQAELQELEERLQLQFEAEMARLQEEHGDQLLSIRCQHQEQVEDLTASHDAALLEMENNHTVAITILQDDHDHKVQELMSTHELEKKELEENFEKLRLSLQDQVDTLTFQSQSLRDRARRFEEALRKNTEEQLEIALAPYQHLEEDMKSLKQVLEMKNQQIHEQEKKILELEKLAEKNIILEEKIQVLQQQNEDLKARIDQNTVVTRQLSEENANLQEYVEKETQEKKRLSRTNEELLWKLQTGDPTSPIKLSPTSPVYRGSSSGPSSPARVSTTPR

effect of a mutation on the interaction	Variant
with no effect	A264V
disrupting interaction strength	S644P
disrupting interaction strength	S140F

Variants of: B3
Conditions: with MTUS2, Q5JR59-3
Target sequence in this assay (Q5JR59 other isoform, or with tags, fused parts or gaps): as above

effect of a mutation on the interaction	Variant
with no effect	Q2L
with no effect	Q2R
with no effect	R44H

Variants of: B4
Conditions: with hsp7c_human HSPA8, P11142
hsp7c_human HSPA8, P11142, sequence (P11142 whole entry, looked up): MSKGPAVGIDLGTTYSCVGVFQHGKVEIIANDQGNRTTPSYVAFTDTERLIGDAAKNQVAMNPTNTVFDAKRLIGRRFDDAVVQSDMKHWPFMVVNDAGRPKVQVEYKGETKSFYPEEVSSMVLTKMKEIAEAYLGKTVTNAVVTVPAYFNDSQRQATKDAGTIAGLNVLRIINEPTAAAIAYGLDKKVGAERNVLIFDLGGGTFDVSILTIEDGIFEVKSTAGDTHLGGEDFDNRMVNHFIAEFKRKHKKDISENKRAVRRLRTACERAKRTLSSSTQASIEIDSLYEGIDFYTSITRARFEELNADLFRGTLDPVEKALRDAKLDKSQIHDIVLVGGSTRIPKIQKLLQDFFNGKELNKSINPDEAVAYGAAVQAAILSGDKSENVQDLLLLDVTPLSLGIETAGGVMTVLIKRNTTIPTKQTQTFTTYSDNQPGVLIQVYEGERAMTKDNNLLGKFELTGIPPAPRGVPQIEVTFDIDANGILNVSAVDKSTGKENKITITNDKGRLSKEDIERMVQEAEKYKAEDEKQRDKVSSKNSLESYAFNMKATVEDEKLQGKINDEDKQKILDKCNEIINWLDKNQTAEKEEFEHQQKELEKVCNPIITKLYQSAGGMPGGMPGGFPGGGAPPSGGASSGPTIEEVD

effect of a mutation on the interaction	Variant
with no effect	T53A

Variants of: B5
Conditions: with TNK2, Q07912-2
TNK2, Q07912-2, sequence (Q07912 other isoform, or with tags, fused parts or gaps): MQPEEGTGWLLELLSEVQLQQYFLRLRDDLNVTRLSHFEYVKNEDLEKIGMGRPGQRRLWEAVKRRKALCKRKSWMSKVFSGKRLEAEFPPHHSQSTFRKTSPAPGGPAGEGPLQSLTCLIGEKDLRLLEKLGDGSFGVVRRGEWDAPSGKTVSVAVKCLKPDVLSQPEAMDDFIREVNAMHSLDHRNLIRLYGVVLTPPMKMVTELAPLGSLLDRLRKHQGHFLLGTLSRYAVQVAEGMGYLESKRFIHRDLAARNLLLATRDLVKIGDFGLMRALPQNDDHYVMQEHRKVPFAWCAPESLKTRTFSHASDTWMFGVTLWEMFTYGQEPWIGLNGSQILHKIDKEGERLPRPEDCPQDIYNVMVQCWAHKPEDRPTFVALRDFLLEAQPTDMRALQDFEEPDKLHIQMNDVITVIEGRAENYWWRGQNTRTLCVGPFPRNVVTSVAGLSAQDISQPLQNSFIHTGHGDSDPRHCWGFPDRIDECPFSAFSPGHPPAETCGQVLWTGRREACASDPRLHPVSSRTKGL

effect of a mutation on the interaction	Variant
with no effect	Y34N

From IntAct's records for PubMed 25910212
